These results are taken from patent publication US20230312753A1 (IMMUNORIZON, published 2023).

In the assay the target is T1, NKG2A/CD94 on CHO cells (CHOK1-NKG2A-CD94) (human, UniProt P26715 1-233; Q13241 1-179, limits assumed).
T1 construct: whole, on cells; also called CHO cells over-expressing NKG2A/CD94; CHO cell line over expressing ectopic NKG2A
The assay is described as follows: competitive FACS receptor-ligand blocking assay on CHOK1-NKG2A-CD94 cells, labelled ligand HLA-E PE (FIG. 49).

T1 sequence (P26715 whole entry, chain 1 of 2): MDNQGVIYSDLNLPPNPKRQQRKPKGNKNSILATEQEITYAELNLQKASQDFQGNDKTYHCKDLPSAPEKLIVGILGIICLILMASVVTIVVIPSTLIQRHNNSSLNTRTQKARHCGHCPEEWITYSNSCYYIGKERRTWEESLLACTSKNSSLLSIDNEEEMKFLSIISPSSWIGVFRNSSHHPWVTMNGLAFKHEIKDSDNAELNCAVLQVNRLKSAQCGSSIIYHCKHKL
T1 sequence (Q13241 whole entry, chain 2 of 2): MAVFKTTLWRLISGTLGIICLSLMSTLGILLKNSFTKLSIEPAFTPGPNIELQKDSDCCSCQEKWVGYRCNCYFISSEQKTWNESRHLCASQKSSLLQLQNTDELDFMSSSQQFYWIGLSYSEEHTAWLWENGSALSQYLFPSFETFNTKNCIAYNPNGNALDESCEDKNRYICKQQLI

B1: IM-1155 Tribody, additional CD3 epsilon mutant variant (other)
heavy: GGSGGSEVQLVESGGGLVQPGGSLRLSCAASGFTFNGGSGGWVRQAPGKGLEWVAGGGSGGGGSGGGSGGSGGGRFTISRDDSKNTLYLQMNSLRAEDTAVYYCVRGGGSGGSGGSGGGGWGQGTMVTVSSASTKGPSVFPLAPSSKSTSGGTAALGCLVKDYFPEPVTVSWNSGALTSGVHTFPAVLQSSGLYSLSSVVTVPSSSLGTQTYICNVNHKPSNTKVDKRVEPKSCPPCGGGGSDIQMTQSPSSLSASVGDRVTITCRASENIYSYLAWYQQKPGKAPKLLIYNAKTLAEGVPSRFSGSGSGTDFTLTISSLQPEDFATYYCQHHYGTPRTFGGGTKVEIKGGGGSGGGGSGGGGSGGGGSQVQLVQSGAEVKKPGASVKVSCKASGYTFTSYWMNWVRQAPGQGLEWMGRIDPYDSETHYAQKLQGRVTMTTDTSTSTAYMELRSLRSDDTAVYYCARGGYDFDVGTLYWFFDVWGQGTTVTVSS
light: GGSGGSQAVVTQEPSLTVSPGGTVTLTCGSSGGGSGGGGSGGWVQQKPGQAPRGLIGGGSGGGSGTPARFSGSLLGGKAALTLSGVQPEDEAEYYCGGGGSGGGGFGGGTKLTVLGQPKAAPSVTLFPPSSEELQANKATLVCLISDFYPGAVTVAWKADSSPVKAGVETTTPSKQSNNKYAASSYLSLTPEQWKSHRSYSCQVTHEGSTVEKTVAPTECPPCSGGGSDIQMTQSPSSLSASVGDRVTITCRASQGISNYLAWFQQKPGKAPKSLIYRANRLQSGVPSRFSGSGSGTDFTLTISSLQPEDVATYYCLQYDDFPWTFGQGTKLEIKGGGGSGGGGSGGGGSGGGGSQVQLVQSGAEVKKPGASVKVSCKASGYTFTSFWMHWVRQAPGQGLEWMGRIDPNRGGTEYNEKAKSRVTMTADKSTSTAYMELSSLRSEDTAVYYCAGGNPYYPMDYWGQGTTVTVSS
B1 registered an IC50 of 60 nM.
